Experimental data as given in IntAct's records for PubMed 17069809.

B1: Parabutoporin (Parabuthus schlechteri), P83312 (parent)
chain: FKLGSFLKKAWKSKLAKKLRAKGKEMLKDYAKGLLEGGSEEVPGQ

Variants of: B1
Conditions: with kpca_human PRKCA

Variant	effect of a mutation on the interaction
S5A;S13A	disrupting interaction
